Results from patent publication US20240059789A1 (Janssen / Centocor, published 2024).
Numbering of substitutions follows the chain as printed. Blank lines part the entries; values can stand above or below the binder they belong to.

What was measured:
[1] = biological target: T1, Human PSMA on prostate cancer cell lines (C4-2B, 22RV1) (human, UniProt Q04609 1-750); test: cell-based or functional assay
[2] = biological target: T1, Human PSMA on prostate cancer cell …; test: cell-based or functional assay; remark: listed apart in the source

T1 sequence (Q04609 whole entry): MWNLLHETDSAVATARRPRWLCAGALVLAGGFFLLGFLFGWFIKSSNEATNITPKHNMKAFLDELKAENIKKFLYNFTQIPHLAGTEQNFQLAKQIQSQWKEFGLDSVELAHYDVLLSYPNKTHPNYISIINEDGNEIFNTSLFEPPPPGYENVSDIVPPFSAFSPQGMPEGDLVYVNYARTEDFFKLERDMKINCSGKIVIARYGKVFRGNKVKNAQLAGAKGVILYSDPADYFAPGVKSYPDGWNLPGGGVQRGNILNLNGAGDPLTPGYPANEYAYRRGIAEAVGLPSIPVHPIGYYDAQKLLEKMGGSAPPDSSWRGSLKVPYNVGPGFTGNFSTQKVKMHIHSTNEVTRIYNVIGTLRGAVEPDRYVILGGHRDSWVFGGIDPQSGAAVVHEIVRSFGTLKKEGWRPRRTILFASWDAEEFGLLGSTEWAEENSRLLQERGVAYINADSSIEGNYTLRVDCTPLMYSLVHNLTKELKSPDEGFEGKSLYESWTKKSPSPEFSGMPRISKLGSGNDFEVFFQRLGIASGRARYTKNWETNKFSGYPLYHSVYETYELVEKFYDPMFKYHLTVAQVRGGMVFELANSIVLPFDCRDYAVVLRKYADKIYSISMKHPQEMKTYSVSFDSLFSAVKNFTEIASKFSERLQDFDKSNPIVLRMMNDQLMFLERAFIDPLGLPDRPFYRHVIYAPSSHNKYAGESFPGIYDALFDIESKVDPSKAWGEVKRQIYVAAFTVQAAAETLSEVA

% cytolysis at 120 hours (C4-2B, xCelligence, donor #1) at 80 pM [1]: 77% | % cytolysis at 120 hours (C4-2B, xCelligence, donor #1) at 0.4 nM [1]: 100% | % cytolysis at 120 hours (C4-2B, xCelligence, donor #1) at 2 nM [1]: 100% | % cytolysis at 120 hours (C4-2B, xCelligence, donor #1) at 10 nM [1]: 100% | % cytolysis at 120 hours (C4-2B, xCelligence, donor #1) at 50 nM [1]: 100% | % cytolysis at 120 hours (C4-2B, xCelligence, donor #2) at 80 pM [1]: 0% | % cytolysis at 120 hours (C4-2B, xCelligence, donor #2) at 0.4 nM [1]: 100% | % cytolysis at 120 hours (C4-2B, xCelligence, donor #2) at 2 nM [1]: 100% | % cytolysis at 120 hours (C4-2B, xCelligence, donor #2) at 10 nM [1]: 100% | % cytolysis at 120 hours (C4-2B, xCelligence, donor #2) at 50 nM [1]: 100% | % cytolysis at 120 hours (C4-2B, xCelligence, donor #3) at 80 pM [1]: 9% | % cytolysis at 120 hours (C4-2B, xCelligence, donor #3) at 0.4 nM [1]: 100% | % cytolysis at 120 hours (C4-2B, xCelligence, donor #3) at 2 nM [1]: 100% | % cytolysis at 120 hours (C4-2B, xCelligence, donor #3) at 10 nM [1]: 100% | % cytolysis at 120 hours (C4-2B, xCelligence, donor #3) at 50 nM [1]: 100%
B1: PS3B1352 (bispecific antibody, human IgG1, lambda, L234A L235A)
heavy 1: QVQLQQSGPRLVRPSQTLSLTCAISGDSVFNNNAAWSWIRQSPSRGLEWLGRTYYRSKWLYDYAVSVKSRITVNPDTSRNQFTLQLNSVTPEDTALYYCARGYSSSFDYWGQGTLVTVSSASTKGPSVFPLAPSSKSTSGGTAALGCLVKDYFPEPVTVSWNSGALTSGVHTFPAVLQSSGLYSLSSVVTVPSSSLGTQTYICNVNHKPSNTKVDKKVEPKSCDKTHTCPPCPAPEAAGGPSVFLFPPKPKDTLMISRTPEVTCVVVSVSHEDPEVKFNWYVDGVEVHNAKTKPREEQYNSTYRVVSVLTVLHQDWLNGKEYKCKVSNKALPAPIEKTISKAKGQPREPQVYTLPPSREEMTKNQVSLTCLVKGFYPSDIAVEWESNGQPENNYKTTPPVLDSDGSFLLYSKLTVDKSRWQQGNVFSCSVMHEALHNHYTQKSLSLSPGK
light 1: QSALTQPASVSGSPGQSITISCTGTSSNIGTYKFVSWYQQHPDKAPKVLLYEVSKRPSGVSSRFSGSKSGNTASLTISGLQAEDQADYHCVSYAGSGTLLFGGGTKLTVLGQPKAAPSVTLFPPSSEELQANKATLVCLISDFYPGAVTVAWKADSSPVKAGVETTTPSKQSNNKYAASSYLSLTPEQWKSHRSYSCQVTHEGSTVEKTVAPTECS
heavy 2: EVQLVESGGGLVQPGGSLRLSCAASGFTFSSYAMSWVRQAPGKGLEWVSAISGGIGSTYYADSVKGRFTISRDNSKNTLWLQMNSLRAEDTAVYYCAKDGVGATPYYFDYWGQGTLVTVSSASTKGPSVFPLAPSSKSTSGGTAALGCLVKDYFPEPVTVSWNSGALTSGVHTFPAVLQSSGLYSLSSVVTVPSSSLGTQTYICNVNHKPSNTKVDKKVEPKSCDKTHTCPPCPAPEAAGGPSVFLFPPKPKDTLMISRTPEVTCVVVSVSHEDPEVKFNWYVDGVEVHNAKTKPREEQYNSTYRVVSVLTVLHQDWLNGKEYKCKVSNKALPAPIEKTISKAKGQPREPQVYTLPPSREEMTKNQVSLTCLVKGFYPSDIAVEWESNGQPENNYKTTPPVLDSDGSFFLYSRLTVDKSRWQQGNVFSCSVMHEALHNHYTQKSLSLSPGK
light 2: QSVLTQPPSVSAAPGQKVTISCSGSSSNIGNNYVSWYQQLPGTAPKLLIYDNNKRPSGIPDRFSGSKSGTSATLGITGLQTGDEADYYCGTWDSSLSAYVFGTGTKVTVLGQPKAAPSVTLFPPSSEELQANKATLVCLISDFYPGAVTVAWKADSSPVKAGVETTTPSKQSNNKYAASSYLSLTPEQWKSHRSYSCQVTHEGSTVEKTVAPTECS
Cytotoxicity (C4-2B cells, 3:1 E:T ratio, 5 Day) at 0.3 nM [2]: 65% | Cytotoxicity (C4-2B cells, 3:1 E:T ratio, 5 Day) at 1.1 nM [2]: 88% | Cytotoxicity (C4-2B cells, 3:1 E:T ratio, 5 Day) at 3.3 nM [2]: 89% | Cytotoxicity (C4-2B cells, 3:1 E:T ratio, 5 Day) at 10 nM [2]: 85% | Cytotoxicity (C4-2B cells, 3:1 E:T ratio, 5 Day) at 30 nM [2]: 79%

% cytolysis at 120 hours (C4-2B, xCelligence, donor #1) at 80 pM [1]: 0% | % cytolysis at 120 hours (C4-2B, xCelligence, donor #1) at 0.4 nM [1]: 100% | % cytolysis at 120 hours (C4-2B, xCelligence, donor #1) at 2 nM [1]: 100% | % cytolysis at 120 hours (C4-2B, xCelligence, donor #1) at 10 nM [1]: 100% | % cytolysis at 120 hours (C4-2B, xCelligence, donor #1) at 50 nM [1]: 100% | % cytolysis at 120 hours (C4-2B, xCelligence, donor #2) at 80 pM [1]: 0% | % cytolysis at 120 hours (C4-2B, xCelligence, donor #2) at 0.4 nM [1]: 24% | % cytolysis at 120 hours (C4-2B, xCelligence, donor #2) at 2 nM [1]: 100% | % cytolysis at 120 hours (C4-2B, xCelligence, donor #2) at 10 nM [1]: 100% | % cytolysis at 120 hours (C4-2B, xCelligence, donor #2) at 50 nM [1]: 100% | % cytolysis at 120 hours (C4-2B, xCelligence, donor #3) at 80 pM [1]: 0% | % cytolysis at 120 hours (C4-2B, xCelligence, donor #3) at 0.4 nM [1]: 100% | % cytolysis at 120 hours (C4-2B, xCelligence, donor #3) at 2 nM [1]: 100% | % cytolysis at 120 hours (C4-2B, xCelligence, donor #3) at 10 nM [1]: 100% | % cytolysis at 120 hours (C4-2B, xCelligence, donor #3) at 50 nM [1]: 100%
B2: PS3B1356 (bispecific antibody, human IgG1, lambda, L234A L235A)
heavy 1: B1 heavy 1 with R10G, R13K, V73I, R79K, T83S, L96V
light 1: B1 light 1 with D43G, L49M, L50I, S62N, Q85E, H89Y
heavy 2: B1 heavy 2
light 2: B1 light 2
Cytotoxicity (C4-2B cells, 3:1 E:T ratio, 5 Day) at 1.1 nM [2]: 55% | Cytotoxicity (C4-2B cells, 3:1 E:T ratio, 5 Day) at 3.3 nM [2]: 80% | Cytotoxicity (C4-2B cells, 3:1 E:T ratio, 5 Day) at 10 nM [2]: 83% | Cytotoxicity (C4-2B cells, 3:1 E:T ratio, 5 Day) at 30 nM [2]: 88%

% cytolysis at 120 hours (C4-2B, xCelligence, donor #1) at 80 pM [1]: 100% | % cytolysis at 120 hours (C4-2B, xCelligence, donor #1) at 0.4 nM [1]: 100% | % cytolysis at 120 hours (C4-2B, xCelligence, donor #1) at 2 nM [1]: 100% | % cytolysis at 120 hours (C4-2B, xCelligence, donor #1) at 10 nM [1]: 100% | % cytolysis at 120 hours (C4-2B, xCelligence, donor #1) at 50 nM [1]: 100% | % cytolysis at 120 hours (C4-2B, xCelligence, donor #2) at 80 pM [1]: 100% | % cytolysis at 120 hours (C4-2B, xCelligence, donor #2) at 0.4 nM [1]: 100% | % cytolysis at 120 hours (C4-2B, xCelligence, donor #2) at 2 nM [1]: 100% | % cytolysis at 120 hours (C4-2B, xCelligence, donor #2) at 10 nM [1]: 100% | % cytolysis at 120 hours (C4-2B, xCelligence, donor #2) at 50 nM [1]: 100% | % cytolysis at 120 hours (C4-2B, xCelligence, donor #3) at 80 pM [1]: 100% | % cytolysis at 120 hours (C4-2B, xCelligence, donor #3) at 0.4 nM [1]: 100% | % cytolysis at 120 hours (C4-2B, xCelligence, donor #3) at 2 nM [1]: 100% | % cytolysis at 120 hours (C4-2B, xCelligence, donor #3) at 10 nM [1]: 100% | % cytolysis at 120 hours (C4-2B, xCelligence, donor #3) at 50 nM [1]: 100%
B3: PS3B1353 (bispecific antibody, human IgG1, lambda, L234A L235A)
heavy 1: B1 heavy 1
light 1: B1 light 1
heavy 2: B1 heavy 2
light 2: B1 light 2 with N31I, Y99V, T103G, V107L
Cytotoxicity (C4-2B cells, 3:1 E:T ratio, 5 Day) at 0.3 nM [2]: 98% | Cytotoxicity (C4-2B cells, 3:1 E:T ratio, 5 Day) at 1.1 nM [2]: 98% | Cytotoxicity (C4-2B cells, 3:1 E:T ratio, 5 Day) at 3.3 nM [2]: 97% | Cytotoxicity (C4-2B cells, 3:1 E:T ratio, 5 Day) at 10 nM [2]: 95% | Cytotoxicity (C4-2B cells, 3:1 E:T ratio, 5 Day) at 30 nM [2]: 92%
